What was measured:
[1] = biological target: T1, His-tagged recombinant human PD-L1 protein (Sino Biological #10084-H08H) (Homo sapiens, UniProt Q9NZQ7); test: SPR; Biacore T200, 25°C, HBS (0.01 M HEPES pH 7.4, 0.15 M NaCl, 3 mM EDTA, 0.005% Tween 20); His-tagged recombinant human PD-L1 amine-coupled on a CM5 chip (650-900 RU); purified Nb as analyte, 9 dilutions (0.15-1000 nM), 120 s association, 160 s dissociation; 1-to-1 fit; n = 1; settings: both partners purified
T1 construct: programmed death-ligand 1 (PD-L1, B7-H1, CD274), human; also called huPD-L1; source: bought: Sino Biological (#10084-H08H)
T1 sequence (Q9NZQ7 19-238): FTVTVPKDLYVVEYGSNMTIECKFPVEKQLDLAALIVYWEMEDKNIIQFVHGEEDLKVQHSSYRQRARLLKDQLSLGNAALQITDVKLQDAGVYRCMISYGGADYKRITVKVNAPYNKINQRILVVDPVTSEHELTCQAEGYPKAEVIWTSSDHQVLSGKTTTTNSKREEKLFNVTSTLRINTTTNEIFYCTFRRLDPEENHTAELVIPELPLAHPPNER

[2] = biological target: T2, His-tagged recombinant mouse PD-L1 protein (Mus musculus, UniProt Q9EP73); test: SPR; His-tagged mouse or human PD-L1 immobilised on a CM5 chip (EDC/NHS, between 650 and 900 RU); purified Nbs, 9 dilutions, 120 sec binding, 160 sec dissociation; Biacore T200, 25°C, HBS (0.01 M HEPES pH 7.4, 0.15 M NaCl, 3 mM EDTA, 0.005% Tween 20); 1-to-1 fit; n = 1; settings: both partners purified
T2 construct: programmed death-ligand 1 (PD-L1, B7-H1, CD274), mouse; also called programmed death-ligand 1; B7-H1; source: bought: Sino Biological #50010-M08H
T2 sequence (Q9EP73 19-239): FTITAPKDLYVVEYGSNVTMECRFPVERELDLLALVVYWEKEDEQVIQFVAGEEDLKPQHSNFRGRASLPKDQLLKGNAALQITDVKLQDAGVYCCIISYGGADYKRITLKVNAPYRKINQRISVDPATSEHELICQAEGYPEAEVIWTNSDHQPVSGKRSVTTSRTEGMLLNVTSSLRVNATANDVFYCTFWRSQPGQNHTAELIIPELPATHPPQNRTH

[3] = biological target: T2, His-tagged recombinant mouse PD-L1 …
[4] = biological target: T3, Mouse PD-L1 Fc-fusion protein (R&D Systems, 1019-B7) (Mus musculus, UniProt Q9EP73); test: SPR; Biacore T200, 25°C, HBS (0.01 M HEPES pH 7.4, 0.15 M NaCl, 3 mM EDTA, 0.005% Tween 20); mouse or human PD-L1 Fc-fusion protein amine-coupled on a CM5 chip (650-900 RU); Nb in crude periplasmic extract as analyte, its concentration estimated by CFCA; 9 dilutions, 120 s association, 160 s dissociation; 1-to-1 fit; affinity estimations; settings: one partner purified
T3 construct: programmed death-ligand 1 (PD-L1, B7-H1, CD274), mouse; also called moPD-L1; B7-H1; source: bought: R&D Systems (1019-B7)
T3 sequence (Q9EP73 19-239): as above

[5] = biological target: T4, Human PD-L1 Fc-fusion protein (R&D Systems, 156-B7) (Homo sapiens, UniProt Q9NZQ7); test: as above; settings: one partner purified
T4 construct: programmed death-ligand 1 (PD-L1, B7-H1, CD274), human; also called huPD-L1; B7-H1; source: bought: R&D Systems (156-B7)
T4 sequence (Q9NZQ7 19-238): as the sequence (Q9NZQ7 19-238) above

B1: Nb C7 (purified, C-terminal His6 tag) (VHH)
VHH: QVQLQESGGGSVQAGESLTLSCTASGSSLSHKSVGWWRQTPGNQRELVALVASGNNTNYVDSVKGRFTVSRDNAKNTMYLQMNSLKPEDTAVYYCRILSVNGIWYWGQGTQVTVSS
notes: source: E. coli (pHEN6), purified; not shown: His6, C-terminal, kept
[1]
  Kd: 74.5 nM

B2: Nb C7 (VHH)
VHH: QVQLQESGGGSVQAGESLTLSCTASGSSLSHKSVGWWRQTPGNQRELVALVASGNNTNYVDSVKGRFTVSRDNAKNTMYLQMNSLKPEDTAVYYCRILSVNGIWYWGQGTQVTVSS
notes: Nanobody from a dromedary immunised with RAW264.7 cells; recloned into pHEN6 for the C-terminal His6 tag; also called anti-PD-L1 Nb C7; source: E. coli fermentation cultures, purified; not shown: His6, C-terminal, kept
[2]
  Kd: 17 nM

B3: H1 (VHH)
VHH: QVQLQESGGGLVQAGGSLRLSCAASGRTFSSRGMGWFRQAPGKEREFVAAISWGGGTTYYADSVKGRFTISRDNAKNTVYLQMNSLKPEDTAVYYCAAHTGFPHEYDYWGQGTQVTVSS
[3]
  binding result: binds

B4: F1 (VHH)
VHH: QVQLQESGGGLVQAGGSLRLSCTASRTTSSINIMAWYRQAPGKRRELVALSIRGGNTHYADSVKGRFTISGVHANNTVYLQMNSLKPEDTAVYYCNTGGYWGQGTQVTVSS
[3]
  binding result: binds

B5: Nb C3 (purified, C-terminal His6 tag) (VHH)
VHH: QVQLQESGGGLVQTGGSLRLSCAASGSTVSSSMMAWWRQTPGNQRELVALVASGNNTNYVDSVKGRFTVSRDNAKNTMYLQMNSLKPEDTAVYYCRILSVNGIWYWGQGTQVTVSS
notes: as for B1
[1]
  Kd: 170 nM

B6: Nb C3 (VHH)
VHH: QVQLQESGGGLVQTGGSLRLSCAASGSTVSSSMMAWWRQTPGNQRELVALVASGNNTNYVDSVKGRFTVSRDNAKNTMYLQMNSLKPEDTAVYYCRILSVNGIWYWGQGTQVTVSS
notes: Nanobody from a dromedary immunised with RAW264.7 cells; recloned into pHEN6 for the C-terminal His6 tag; also called anti-PD-L1 Nb C3; source: E. coli fermentation cultures, purified; not shown: His6, C-terminal, kept
[2]
  Kd: 0.5 nM

B7: Nb E2 (purified, C-terminal His6 tag) (VHH)
VHH: QVQLQESGGGLVQAGGSLRLSCATSGSIFSIISMGWYRQAPGKQRELVALVFRGGSTVYADSVKGRFTISGDIAKNTVYLQMDSLKPEDTAVYYCNVKSIGTAQYWGQGTQITVSS
notes: as for B1
[1]
  Kd: 55.1 nM

B8: Nb E4 (VHH)
VHH: QVQLQESGGGLVHPGGSLRLSCATSGSIFSIISMGWYRQAPGKQRELVALVFRGGSTVYADSVKGRFTISGDIAKSTVYLQMDSLKPEDTAVYYCNAKPIGTAQYWGQGTQVTVSS
notes: Nanobody from a dromedary immunised with RAW264.7 cells; recloned into pHEN6 for the C-terminal His6 tag; also called anti-PD-L1 Nb E4; source: E. coli fermentation cultures, purified; not shown: His6, C-terminal, kept
[2]
  Kd: 4 nM

B9: Nb E2 (VHH)
VHH: QVQLQESGGGLVQAGGSLRLSCATSGSIFSIISMGWYRQAPGKQRELVALVFRGGSTVYADSVKGRFTISGDIAKNTVYLQMDSLKPEDTAVYYCNVKSIGTAQYWGQGTQITVSS
notes: Nanobody from a dromedary immunised with RAW264.7 cells; recloned into pHEN6 for the C-terminal His6 tag; also called anti-PD-L1 Nb E2; source: E. coli fermentation cultures, purified; not shown: His6, C-terminal, kept
[2]
  Kd: 2.1 nM

B10: Nb E4 (purified, C-terminal His6 tag) (VHH)
VHH: QVQLQESGGGLVHPGGSLRLSCATSGSIFSIISMGWYRQAPGKQRELVALVFRGGSTVYADSVKGRFTISGDIAKSTVYLQMDSLKPEDTAVYYCNAKPIGTAQYWGQGTQVTVSS
notes: as for B1
[1]
  Kd: 46.1 nM

B11: Nb C4 (HA-tagged, in periplasmic extract) (VHH)
VHH: QVQLQESGGGLVQPGGSLRLSCAASGSTVSSSMMAWWRQTPGNQRELVALVASGNNTNYVDSVKGRFTVSRDNAKNTMYLQMNGLKPEDTAVYYCRLSVNGIWYWGQGTQVTVSS
notes: source: E. coli WK6 (pHEN4), crude periplasmic extract
[4]
  Kd: 0.187 nM
[5]
  Kd: 342 nM
